Laboratory results as given in patent US20210253725A1 (BIONTECH, published 2021).

T1: CD27 expressed on the cell surface (HT1080_CD27 cells) (human, UniProt P26842 20-260)
T1 construct: whole, on cells; also called K562_CD27
T1 sequence (looked up): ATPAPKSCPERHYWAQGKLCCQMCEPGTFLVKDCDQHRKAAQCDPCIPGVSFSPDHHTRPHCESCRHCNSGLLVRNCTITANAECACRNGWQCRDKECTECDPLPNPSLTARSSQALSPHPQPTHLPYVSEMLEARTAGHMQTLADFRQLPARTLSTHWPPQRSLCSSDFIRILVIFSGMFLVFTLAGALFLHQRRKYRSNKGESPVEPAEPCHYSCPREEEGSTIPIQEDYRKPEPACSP

T2: CD27 protein (His-tagged, Sino Biological Inc. 10039-H08B1) (human, UniProt P26842 20-192)
T2 construct: bought; coated onto ELISA plates; also called human CD27; recombinant protein; not shown: His tag
T2 sequence (looked up): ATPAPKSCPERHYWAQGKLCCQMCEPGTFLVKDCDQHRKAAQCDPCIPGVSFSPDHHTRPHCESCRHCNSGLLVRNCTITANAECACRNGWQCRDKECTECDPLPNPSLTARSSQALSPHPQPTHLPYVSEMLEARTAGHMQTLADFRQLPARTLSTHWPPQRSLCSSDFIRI


Key:
[1] = target: T1, CD27 expressed on the cell surface …; experiment: cellular binding assay, HT1080_CD27 cells
[2] = target: T1, CD27 expressed on the cell surface …; experiment: cell-based or functional assay
[3] = target: T2, CD27 protein (His-tagged, Sino …); experiment: ELISA on coated His-tagged CD27
Also: test concentration or dose not given here.

| Binder | Cellular binding assay [RFU] [1] [RFU] | IL-8, cross-linked by F(ab')2 fragment [abs. corr.] [2] [abs. corr.] | IL-8 [abs. corr.] [2] [abs. corr.] | ELISA [abs. corr.] [3] [abs. corr.] |
| --- | --- | --- | --- | --- |
| P018.S.01.A.A04 (antibody, V domains shown, V regions on human Ig constant parts; also called AB27_1) VH: QSVEESGGRLVTPGTPLTLTCTVSGFSLSRYWVSWVRQAPGKGLEAIGVIDNGDTAYYASWAKGRFTISKTSSITVDLKMTSLTTEDTATYFCTREGADHSGQDLWGQGTLVTVSS VL: AAVLTQTPSPVSAAVGGTVTINCQASQSVISNNDLSWYQQKPGQPPKLLIYRASNLASGVPSRFEGSGSGTQFTLTISDLESEDAATYYCQGGYAGIVDRRPFGGGTEVVVK | 315 | 1.03 | 0.236 | 3.24 |
| P018.S.01.A.C02 (antibody, V domains shown, V regions on human Ig constant parts; also called AB27_7) VH: QSLEESGGDLVQPGASLTLTCTASGLDFISSYMCWVRQAPGKGLEWIGCIAPGGGNTYYATWAKGRFTFSETSSTTVTLQMTSLTAADTATYFCARTYPSIWYFGLWGPGTLVTVSS VL: DVVMTQTPASVSEPVGGTVTIKCQASQSIGSNLGWYQQKPGQPPKLLIYGASTLASGVSSRFKGSGSGTEFTLTMSDLESADAATYYCQSFYAASSAFGGGTEVVVK | 324 | 1.48 | 0.395 | 3.25 |
| P018.S.01.A.C04 (antibody, V domains shown, V regions on human Ig constant parts; also called AB27_8) VH: QSLEESGGGLVTPGGTLTLTCTASGSDISTYHMGWFRQAPGKGLEYIGFINTGGTTWYASWAKGRFTVSRTSTTVDLLMTSPTTEDTATYFCARYDAGHAFFDLWGPGTLVTVSS VL: AVVMTQTASPVSAAVGGTVTIKCQASQSIGSSYFSWYQQKPGQPPKLLIYSASTLASGVSSRFKGSGSGTEYTLTISDLESADAATYYCQGYDGDTTTAFFAFGGGTEVVVE | 368 | 1.08 | 0.383 | 3.24 |
| P018.S.02.A.B03 (antibody, V domains shown, V regions on human Ig constant parts; also called AB27_30) VH: QSLEESGGGLVKPGGTLTLTCTASGFSLSSTYMSWVRQAPGKGLEWIGDIYTDGSTYYASWVNGRFTISKTSTTVDLKMTSLTTEDTATYFCARGAAAAYDLWGQGTLVTVSS VL: AYDMTQTPASVSAAVGGTVTIKCQASQNIYTNLAWYQQKPGQPPKLLIYGVSNLESGVPSRFKGSGSGTQFTLTISGVQSDDAATYYCQQGYSSTNVENAFGGGTEVVVK | 332 | 1.16 | 0.12 | 3.25 |

The remaining lines, values ahead:

| Cellular binding assay [RFU] [1] [RFU] | IL-8, cross-linked by F(ab')2 fragment [abs. corr.] [2] [abs. corr.] | IL-8 [abs. corr.] [2] [abs. corr.] | ELISA [abs. corr.] [3] [abs. corr.] | Binder |
| --- | --- | --- | --- | --- |
| 256 | 1.19 | -0.16 | 3.25 | P018.S.07.A.H05 (antibody, V domains shown, V regions on human Ig constant parts; also called AB27_133) VH: QSLEESGGRLVTPGTPLTLTCTASGFSLNSYYINWVRQAPGKGLEWIGFINGYDNTWYASWAKGRFTISRTSTTVDLRITSPTTEDTATYFCARDPGGASGTGRLDLWGQGTLVTVSS VL: DIVMTQTPASVSAAVGGTVTINCQASQSISTALAWYQQKPGQRPKLLIYDASKLASGVPSRFKGNGSGTEFTLTISDLESADAATYYCQCTYYDAYDVGAFGGGTEVVVN |
| 308 | 1.46 | 0.455 | 3.25 | P018.S.10.A.B06 (antibody, V domains shown, V regions on human Ig constant parts; also called AB27_169) VH: QSVEESGGRLVTPGTPLTLTCTVSGFSLSSSHMCWVRQAPGKGLEWIGVINIGDIAYYASWAKGRFTISKTSTTVDLKMTSLTAADTATYFCARENAYGTGWDFDLWGQGTLVTVSS VL: AYDMTQTPASVEVAVGGTVTIKCQASESIRNALAWYQQKPGQPPKQLIYSASTLASGVPSRFKGSGSGTEFTLTISGVQSDDAATYYCQQGFSLRNVDNAFGGGTEVVVK |
| 144 | 2.1 | 1.57 | 3.25 | P018.S.10.A.H02 (antibody, V domains shown, V regions on human Ig constant parts; also called AB27_185) VH: QSLEESGGRLVTPGGSLTLTCTVSGIDLSSYAMGWFRQAPGKGLEYIGIIYSSGSTWFANWVKGRFTISKTSTTVDLKMTSLTTEDTATYFCARYSAADHGDKFKLWGQGTLVTVSS VL: AAVLTQTPSPVSAAVGGTVSISCQSSKNIFDNTRLSWFQQKPGQPPKQLIYGASTLASGVPSRFSGSGSGTQFTLTISGVQSDDAATYYCLGEYSSDSDTSFGGGTEVVVK |
